Columns and labels:
Assay in all cases: cell_activity; PAM 5'-ATTG-3'
Conditions in all cases: tags: pcDNA3.1 expression
[1] = target: T1, variant nuclease L38G combination (P14R, D32R, I61R, E311R, L38G)
T1 chain: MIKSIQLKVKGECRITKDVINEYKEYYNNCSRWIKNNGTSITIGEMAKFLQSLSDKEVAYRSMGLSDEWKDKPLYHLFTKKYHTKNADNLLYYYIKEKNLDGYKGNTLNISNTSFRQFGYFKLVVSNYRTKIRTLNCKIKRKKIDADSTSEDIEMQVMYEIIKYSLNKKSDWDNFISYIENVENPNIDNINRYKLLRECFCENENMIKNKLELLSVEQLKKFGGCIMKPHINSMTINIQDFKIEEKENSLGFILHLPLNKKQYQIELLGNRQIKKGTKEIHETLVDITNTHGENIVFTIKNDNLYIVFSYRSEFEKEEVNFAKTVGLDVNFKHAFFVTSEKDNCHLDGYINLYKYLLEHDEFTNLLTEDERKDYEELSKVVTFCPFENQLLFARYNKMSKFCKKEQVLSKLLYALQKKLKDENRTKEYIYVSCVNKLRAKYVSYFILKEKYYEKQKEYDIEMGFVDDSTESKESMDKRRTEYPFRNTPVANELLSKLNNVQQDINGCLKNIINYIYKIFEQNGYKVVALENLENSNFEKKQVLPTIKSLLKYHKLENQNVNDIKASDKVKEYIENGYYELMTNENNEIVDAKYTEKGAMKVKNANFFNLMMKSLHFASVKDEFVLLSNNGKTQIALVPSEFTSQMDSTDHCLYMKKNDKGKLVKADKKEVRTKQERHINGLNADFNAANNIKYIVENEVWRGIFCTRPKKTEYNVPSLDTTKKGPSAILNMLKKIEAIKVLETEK

[2] = target: T2, variant nuclease D590G combination (P14R, D32R, I61R, E311R, D590G)
T2 chain: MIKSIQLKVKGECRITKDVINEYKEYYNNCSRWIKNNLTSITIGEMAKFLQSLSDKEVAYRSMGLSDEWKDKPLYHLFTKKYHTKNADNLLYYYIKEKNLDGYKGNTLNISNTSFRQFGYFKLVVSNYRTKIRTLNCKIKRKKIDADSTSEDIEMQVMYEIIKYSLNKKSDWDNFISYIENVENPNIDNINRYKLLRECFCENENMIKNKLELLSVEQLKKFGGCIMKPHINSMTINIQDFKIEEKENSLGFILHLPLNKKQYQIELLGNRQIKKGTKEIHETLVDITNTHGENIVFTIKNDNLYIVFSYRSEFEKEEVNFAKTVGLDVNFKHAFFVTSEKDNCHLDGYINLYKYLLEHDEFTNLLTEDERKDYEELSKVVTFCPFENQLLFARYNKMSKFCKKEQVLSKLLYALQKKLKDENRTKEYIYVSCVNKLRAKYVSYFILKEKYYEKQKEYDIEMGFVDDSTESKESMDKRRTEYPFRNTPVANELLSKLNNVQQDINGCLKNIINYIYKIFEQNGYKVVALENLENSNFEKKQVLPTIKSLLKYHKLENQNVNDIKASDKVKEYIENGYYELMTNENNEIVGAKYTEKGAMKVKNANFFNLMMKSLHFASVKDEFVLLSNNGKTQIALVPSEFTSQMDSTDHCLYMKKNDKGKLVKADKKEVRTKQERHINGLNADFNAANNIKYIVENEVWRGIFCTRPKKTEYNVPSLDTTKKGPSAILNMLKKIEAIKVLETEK

[3] = target: T3, variant nuclease E154G combination (P14R, D32R, I61R, E311R, E154G)
T3 chain: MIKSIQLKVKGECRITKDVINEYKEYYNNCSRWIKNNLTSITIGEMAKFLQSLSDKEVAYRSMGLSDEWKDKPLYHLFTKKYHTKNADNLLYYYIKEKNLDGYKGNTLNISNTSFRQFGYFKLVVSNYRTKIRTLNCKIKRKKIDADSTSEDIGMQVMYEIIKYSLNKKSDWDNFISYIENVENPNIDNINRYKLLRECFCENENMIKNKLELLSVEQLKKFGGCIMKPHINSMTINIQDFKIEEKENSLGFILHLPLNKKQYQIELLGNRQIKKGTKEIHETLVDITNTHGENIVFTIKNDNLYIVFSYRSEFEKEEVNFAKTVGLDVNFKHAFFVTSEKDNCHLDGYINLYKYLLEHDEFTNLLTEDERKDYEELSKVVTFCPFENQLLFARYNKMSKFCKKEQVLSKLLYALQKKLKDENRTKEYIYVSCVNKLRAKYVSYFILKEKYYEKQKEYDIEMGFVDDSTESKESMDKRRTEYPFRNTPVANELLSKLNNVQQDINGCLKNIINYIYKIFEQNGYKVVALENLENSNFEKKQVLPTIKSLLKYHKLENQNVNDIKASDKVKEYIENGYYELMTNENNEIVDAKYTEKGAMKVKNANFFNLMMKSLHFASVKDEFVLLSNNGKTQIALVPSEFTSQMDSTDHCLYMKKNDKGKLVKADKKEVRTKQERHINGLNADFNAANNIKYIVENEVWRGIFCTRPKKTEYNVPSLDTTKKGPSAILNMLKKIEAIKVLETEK

B1: EMX1 crRNA ; EMX1 target (ssRNA ; dsDNA)
RNA: CUUGUUGUAUAUGUCCUUUUAUAGGUAUUAAACAACCCGCCGCUUCCUGAGCCAUC
DNA 1: CCGCCGCTTCCTGAGCCATC
DNA 2: GATGGCTCAGGAAGCGGCGG
[1]
  indel editing activity: 0.16 fold of WT
[2]
  indel editing activity: 7.43 fold of WT
[3]
  indel editing activity: 6.04 fold of WT

— patent US20240035010, “COMPOSITIONS COMPRISING A VARIANT POLYPEPTIDE AND USES THEREOF” (Arbor Biotechnologies, Inc., published 2024)
